Paper PMC7261414, “A complex comprising C15ORF41 and Codanin-1: the products of two genes mutated in congenital dyserythropoietic anaemia type I (CDA-I)” (Biochemical Journal, 2020)

Biological target: T1, Codanin-1-C (fragment of Codanin-1, amino acids P800-S1227) (human, UniProt Q8IWY9 800-1227)
T1 construct: Codanin-1, amino acids P800-S1227; Plasmid pET28a 6His z-basic TEV CDAN1^P800-S1227; the text speaks only of the hexahistidine tag being cleaved with TEV; that z-basic goes with it follows from the order in the plasmid's name; also called CDAN1^P800-S1227; source: E. coli, purified (Ni2+-NTA agarose, tag cleaved with His-TEV protease); not shown: His6, N-terminal, cleaved; z-basic, N-terminal, …
T1 sequence (looked up): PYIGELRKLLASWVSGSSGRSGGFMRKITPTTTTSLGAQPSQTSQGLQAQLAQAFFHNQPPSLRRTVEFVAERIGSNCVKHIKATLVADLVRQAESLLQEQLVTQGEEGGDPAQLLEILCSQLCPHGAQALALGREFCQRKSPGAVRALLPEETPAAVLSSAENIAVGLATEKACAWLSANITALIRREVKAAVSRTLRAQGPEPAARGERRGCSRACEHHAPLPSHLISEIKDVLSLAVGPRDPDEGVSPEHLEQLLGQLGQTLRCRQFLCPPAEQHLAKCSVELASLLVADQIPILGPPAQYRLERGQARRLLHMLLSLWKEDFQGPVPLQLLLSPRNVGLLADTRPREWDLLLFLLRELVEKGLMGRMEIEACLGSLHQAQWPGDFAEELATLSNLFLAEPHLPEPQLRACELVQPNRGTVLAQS
Assay: pull-down + SEC; purified His6-C15ORF41 re-bound to Ni2+-NTA agarose, excess of purified Codanin-1-C passed over, eluted with 400 mM imidazole, Superdex 200 16/60 in 50 mM Tris pH 7.5, 500 mM NaCl, 5% glycerol, 0.5 mM TCEP
Details: both partners purified

B1: His6-C15ORF41 bearing the solubilising mutations V18M, C223S and W237R (natural protein, human, UniProt Q9Y2V0 1-281, looked up)
chain: MILTKAQYDEIAQCLVSMPPTRQSLRKLKQRFPSQSQATLLSIFSQEYQKHIKRTHAKHHTSEAIESYYQRYLNGVVKNGAAPVLLDLANEVDYAPSLMARLILERFLQEHEETPPSKSIINSMLRDPSQIPDGVLANQVYQCIVNDCCYGPLVDCIKHAIGHEHEVLLRDLLLEKNLSFLDEDQLRAKGYDKTPDFILQVPVAVEGHIIHWIESKASFGDESSHHAYLHDQFWSYRNRFGPGLVIYWYGFIQELDCNRERGILLKACFPTNIVTLCHSIA
notes: C15ORF41 (CDIN1) with the extra mutations V18M, C223S and W237R; Plasmid pNIC28 Bsa4 6His Tev C15ORF41^(V18M C223S W237R), a gift from J. Newman (SGC Oxford); preparations held bacterial ArnA as a contaminant; also called C15ORF41^(V18M C223S W237R); source: E. coli, purified (Ni2+-NTA agarose, dialysis); not shown: His6, N-terminal, kept
- binding result: binds
